# IntAct's records for PubMed 25752543
# B1: Vascular endothelial growth factor C (Mus musculus), P97953-1 (parent)
# chain: MHLLCFLSLACSLLAAALIPSPREAPATVAAFESGLGFSEAEPDGGEVKAFEGKDLEEQLRSVSSVDELMSVLYPDYWKMYKCQLRKGGWQQPTLNTRTGDSVKFAAAHYNTEILKSIDNEWRKTQCMPREVCIDVGKEFGAATNTFFKPPCVSVYRCGGCCNSEGLQCMNTSTGYLSKTLFEITVPLSQGPKPVTISFANHTSCRCMSKLDVYRQVHSIIRRSLPATLPQCQAANKTCPTNYVWNNYMCRCLAQQDFIFYSNVEDDSTNGFHDVCGPNKELDEDTCQCVCKGGLRPSSCGPHKELDRDSCQCVCKNKLFPNSCGANREFDENTCQCVCKRTCPRNQPLNPGKCACECTENTQKCFLKGKKFHHQTCSCYRRPCANRLKHCDPGLSFSEEVCRCVPSYWKRPHLN
# partner: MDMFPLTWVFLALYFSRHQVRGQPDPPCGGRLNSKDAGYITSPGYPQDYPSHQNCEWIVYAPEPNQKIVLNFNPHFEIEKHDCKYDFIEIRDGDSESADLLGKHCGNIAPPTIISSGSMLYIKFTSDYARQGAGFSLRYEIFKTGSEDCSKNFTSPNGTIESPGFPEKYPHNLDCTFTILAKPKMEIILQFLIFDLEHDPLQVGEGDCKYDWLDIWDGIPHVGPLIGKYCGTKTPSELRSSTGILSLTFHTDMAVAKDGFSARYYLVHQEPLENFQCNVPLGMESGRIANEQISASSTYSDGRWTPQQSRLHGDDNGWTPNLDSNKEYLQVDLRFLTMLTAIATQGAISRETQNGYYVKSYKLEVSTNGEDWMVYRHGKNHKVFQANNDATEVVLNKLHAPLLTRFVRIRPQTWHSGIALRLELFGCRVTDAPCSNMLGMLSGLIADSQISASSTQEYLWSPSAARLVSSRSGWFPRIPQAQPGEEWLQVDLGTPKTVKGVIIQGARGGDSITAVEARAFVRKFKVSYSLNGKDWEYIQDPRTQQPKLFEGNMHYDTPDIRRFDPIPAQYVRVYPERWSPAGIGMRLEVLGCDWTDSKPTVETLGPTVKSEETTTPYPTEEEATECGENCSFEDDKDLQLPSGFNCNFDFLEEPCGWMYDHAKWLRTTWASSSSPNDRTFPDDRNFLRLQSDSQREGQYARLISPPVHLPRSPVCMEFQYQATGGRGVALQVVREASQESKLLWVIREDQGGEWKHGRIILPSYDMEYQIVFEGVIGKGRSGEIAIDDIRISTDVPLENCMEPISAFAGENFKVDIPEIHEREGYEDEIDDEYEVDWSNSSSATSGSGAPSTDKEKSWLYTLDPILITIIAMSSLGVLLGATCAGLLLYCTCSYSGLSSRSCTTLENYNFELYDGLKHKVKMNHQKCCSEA
# B2: Neuropilin-2 (Homo sapiens), O60462 (parent)
# chain: B1 partner
# partner: B1 chain
# Variants of: B1
# Conditions: with nrp2_human NRP2, O60462
row,Variant,effect of a mutation on the interaction
1,R223E,decreasing interaction strength

# Variants of: B2
# Conditions: with Vegfc
row,Variant,effect of a mutation on the interaction
1,T319R,disrupting interaction strength
